In patent publication US20130217582, “Library Compositions and Methods for Acyclic Identification of Aptamers” (published 2013):

B1: FIXa aptamer rank 2 (SEQ 114/151) (ssRNA)
RNA: ACGACGCUCUUCCGAUCUAUGGAGGGCAGCCCGGUAGUCGCCCACGGGGAACGCGUCAAGCUAACGGAGCUCGUAUGC
B2: FIXa aptamer rank 1 (SEQ 133/150) (ssRNA)
RNA: ACGACGCUCUUCCGAUCUAUGGUUCCAGUCGGUGAACUUCCUGAGUCCGGUGUGUGCAAGCUAACGGAGCUCGUAUGC
B3: FIXa aptamer rank 3 (SEQ 122/152) (ssRNA)
RNA: ACGACGCUCUUCCGAUCUAUGGUCAUACGCGCAGGCUGGAGGUAUUACCCCCCGGGCAAGCUAACGGAGCUCGUAUGC

Each binder was assayed against Coagulation factor IXa (FIXa) (Homo sapiens, UniProt P00740;P00740 P00740:47-191,P00740:227-461) (assay: EMSA; estimated by mobility shift compared to a known FIXa aptamer; native PAGE 4 C; T7 transcript starts with GG before F5). Conditions: tags: Haematologic Technologies; immobilized on con-A beads for partitioning; putative G/U quadruplex.
Sequence of Coagulation factor IXa (FIXa) (P00740 47-191, chain 1 of 2): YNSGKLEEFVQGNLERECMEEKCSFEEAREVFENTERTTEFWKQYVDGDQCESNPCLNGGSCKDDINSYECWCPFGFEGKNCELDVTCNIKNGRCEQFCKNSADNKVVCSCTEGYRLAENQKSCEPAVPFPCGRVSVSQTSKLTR
Sequence of Coagulation factor IXa (FIXa) (P00740 227-461, chain 2 of 2): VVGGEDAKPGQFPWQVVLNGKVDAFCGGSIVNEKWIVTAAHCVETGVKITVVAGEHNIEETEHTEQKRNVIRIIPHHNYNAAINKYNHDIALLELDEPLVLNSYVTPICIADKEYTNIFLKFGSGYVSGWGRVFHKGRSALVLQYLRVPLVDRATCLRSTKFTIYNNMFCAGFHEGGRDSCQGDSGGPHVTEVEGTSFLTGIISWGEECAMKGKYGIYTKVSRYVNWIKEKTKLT
In the case of B1, the Kd is reported as roughly 220 nM. For B2, the Kd was roughly 220 nM. Binder B3 has a Kd of roughly 700 nM.
